These are literature values, as cited in article PMC8910571.

In the series the target is T1, PTK7 (tyrosine kinase 7 protein) (UniProt Q13308).
T1 sequence: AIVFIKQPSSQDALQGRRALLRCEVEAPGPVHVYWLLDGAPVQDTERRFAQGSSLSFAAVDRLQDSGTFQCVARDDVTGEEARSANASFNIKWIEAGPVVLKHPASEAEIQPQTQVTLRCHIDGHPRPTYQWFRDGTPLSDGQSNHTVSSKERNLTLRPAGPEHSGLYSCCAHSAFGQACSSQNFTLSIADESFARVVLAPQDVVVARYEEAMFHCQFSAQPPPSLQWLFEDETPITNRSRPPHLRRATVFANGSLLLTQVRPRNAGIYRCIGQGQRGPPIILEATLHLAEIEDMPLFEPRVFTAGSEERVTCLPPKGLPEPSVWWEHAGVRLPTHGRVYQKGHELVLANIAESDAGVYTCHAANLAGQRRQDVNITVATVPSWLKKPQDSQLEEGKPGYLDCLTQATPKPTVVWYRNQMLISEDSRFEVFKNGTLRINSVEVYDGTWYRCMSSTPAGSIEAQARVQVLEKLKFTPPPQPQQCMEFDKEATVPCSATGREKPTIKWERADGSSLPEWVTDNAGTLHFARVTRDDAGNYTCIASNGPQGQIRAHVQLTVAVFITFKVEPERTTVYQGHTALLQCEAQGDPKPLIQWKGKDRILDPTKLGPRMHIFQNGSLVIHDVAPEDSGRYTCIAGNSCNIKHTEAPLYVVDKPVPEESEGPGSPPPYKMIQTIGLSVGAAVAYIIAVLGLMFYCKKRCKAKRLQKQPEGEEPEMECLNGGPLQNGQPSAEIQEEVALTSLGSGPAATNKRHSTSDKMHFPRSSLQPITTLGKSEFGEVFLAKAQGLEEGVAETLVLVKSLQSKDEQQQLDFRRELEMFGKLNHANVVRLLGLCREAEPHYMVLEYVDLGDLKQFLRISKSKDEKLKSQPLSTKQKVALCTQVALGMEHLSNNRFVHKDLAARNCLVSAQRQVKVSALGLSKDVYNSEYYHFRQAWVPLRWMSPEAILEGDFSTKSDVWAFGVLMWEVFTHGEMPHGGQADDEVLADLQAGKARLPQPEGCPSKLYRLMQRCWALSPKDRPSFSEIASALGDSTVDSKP

A word on the Kd: it is the free concentration of one partner at which half of the binding sites on the other are occupied at equilibrium, for simple one-to-one binding. In the case of “ATCTAACTGCTGCGCCGCCGGGAAAATACTGTACGGTTAGA [Sgc8-c]”, the Kd was 780 pM.
